Source: patent US20110237560A1 (published 2011)
Blank lines part the entries; values can stand above or below the binder they belong to.

Legend:
Myc-human Hsp90beta [1] = molecular target: T1, Myc-human Hsp90beta (human, UniProt P08238 1-724); assay: anti-Flag co-immunoprecipitation from cotransfected HEK293T, western blot anti-myc
T1 construct: also called myc-Hsp90beta; myc-tagged Hsp90beta; not shown: N-terminal myc tag of pCMV-3Tag2

Myc-human Hsp90beta [2] = molecular target: T1, Myc-human Hsp90beta; assay: anti-Flag co-immunoprecipitation from cotransfected HEK293T, western blot anti-myc (FIG. 2C)

T1 sequence (P08238 whole entry): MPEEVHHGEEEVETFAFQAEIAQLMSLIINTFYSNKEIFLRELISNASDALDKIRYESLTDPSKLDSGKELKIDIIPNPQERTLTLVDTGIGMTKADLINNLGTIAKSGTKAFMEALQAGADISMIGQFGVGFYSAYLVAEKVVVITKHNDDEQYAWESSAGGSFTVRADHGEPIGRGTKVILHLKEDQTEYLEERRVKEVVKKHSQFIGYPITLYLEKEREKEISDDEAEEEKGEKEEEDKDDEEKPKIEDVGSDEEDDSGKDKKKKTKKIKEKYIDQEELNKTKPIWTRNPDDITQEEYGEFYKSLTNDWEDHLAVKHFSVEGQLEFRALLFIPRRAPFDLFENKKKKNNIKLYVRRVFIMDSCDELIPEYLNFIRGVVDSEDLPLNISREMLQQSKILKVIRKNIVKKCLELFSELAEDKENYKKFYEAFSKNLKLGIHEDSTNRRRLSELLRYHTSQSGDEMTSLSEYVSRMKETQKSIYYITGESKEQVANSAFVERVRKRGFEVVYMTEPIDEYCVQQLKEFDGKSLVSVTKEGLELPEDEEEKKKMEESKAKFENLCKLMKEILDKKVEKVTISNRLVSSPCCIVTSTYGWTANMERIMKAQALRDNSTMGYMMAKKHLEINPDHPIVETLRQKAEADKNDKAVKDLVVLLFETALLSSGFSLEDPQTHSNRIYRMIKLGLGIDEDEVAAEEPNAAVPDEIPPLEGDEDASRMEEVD

binding result (Myc-human Hsp90beta [1]): no binding
B1: Flag-tagged rat APOBEC1 (enzyme, UniProt P38483 1-229, looked up)
chain: MSSETGPVAVDPTLRRRIEPHEFEVFFDPRELRKETCLLYEINWGGRHSIWRHTSQNTNKHVEVNFIEKFTTERYFCPNTRCSITWFLSWSPCGECSRAITEFLSRYPHVTLFIYIARLYHHADPRNRQGLRDLISSGVTIQIMTEQESGYCWRNFVNYSPSNEAHWPRYPHLWVRLYVLELYCIILGLPPCLNILRRKQPQLTFFTIALQSCHYQRLPPHILWATGLK
notes: also called A1; not shown: N-terminal Flag tag (annealed oligonucleotides AO1 and AO2)

binding result (Myc-human Hsp90beta [2]): no binding
B2: AID-APOBEC2 chimera #1 (enzyme)
chain: MDSLLMNRRKFLYQFKNVEYSSGRNKTFLCYVVEAQGKGGQVQASRGYLEDEHAAELLFLRYISDWDLDPGRCYRVTWFTSWSPCYDCARHVADFLRGNPNLSLRIFTARLYFCEDRKAEPEGLRRLHRAGVQIAIMTFKDYFYCWNTFVENHERTFKAWEGLHENSVRLSRQLRRILLPLYEVDDLRDAFRTLGL
notes: range 60-96; Flag-tagged in the HEK293T co-immunoprecipitation; also called AID-A2 #1; not shown: its end of the chain and its l

binding result (Myc-human Hsp90beta [1]): no binding
B3: Flag-tagged APOBEC2 (enzyme, UniProt Q9Y235 1-224, looked up)
chain: MAQKEEAAVATEAASQNGEDLENLDDPEKLKELIELPPFEIVTGERLPANFFKFQFRNVEYSSGRNKTFLCYVVEAQGKGGQVQASRGYLEDEHAAAHAEEAFFNTILPAFDPALRYNVTWYVSSSPCAACADRIIKTLSKTKNLRLLILVGRLFMWEEPEIQAALKKLKEAGCKLRIMKPQDFEYVWQNFVEQEEGESKAFQPWEDIQENFLYYEEKLADILK
notes: also called A2; not shown: N-terminal Flag tag (annealed oligonucleotides AO1 and AO2)
